{"source": "patent US6107104A", "about": "“Modulators of anchoring protein function” (ICOS Corporation, priority 1996, dated 2000)", "test_system": "PKC", "assay": "PKC activity assay with EGF receptor peptide substrate", "assay_type": "biochemical", "procedure": "In order to asses the ability of these peptides to modulate PKC activity, the following assay was performed in the presence and absence of AKAP 79 peptide fragments. PKC [50 nM dissolved in 50 mM tris-HCl (pH 7.4), 5 mM MgCl2 1.2 mM CaCl2, 1 mM DTT, 1 mM EGTA and 100 μg/ml PS] was incubated with EGF receptor peptide substrate (5 μM) at 30° C. for five minutes. Phosphorylation reaction was initiated by addition of 100 μM ^32 P-ATP (500 cpm/pmol) and the reaction allowed to proceed for ten minutes at 30° C. Aliquots of reaction mixture were removed and spotted into P81 filter paper and the reaction terminated by washing the filter paper with excess 75 mM phosphoric acid (three washes for three minutes each). After a final wash in ethanol, the p81 filters were dried and radioactivity was measured by liquid scintillation counting.", "data": [{"molecule": "recombinant fragment to the first 75 amino acids of AKAP 79: recombinant fragment of AKAP 79, amino acids 1-75 (protein, UniProt P24588 1-75, looked up, fragment) METTISEIHVENKDEKRSAEGSPGAERQKEKASMLCFKRRKKAAKALKPKAGSEAADVARKCPQEAGASDQPEPT", "values": [{"measurement": "effect of incubation with CaM on inhibition of PKC", "setting": "CaM 15 μM, excess Ca2+", "result": "prevented inhibition"}, {"measurement": "IC50", "setting": "read-out: IC50 of inhibition of PKC activity", "result": "25 ± 5", "unit": "nM"}]}]}
